Assay results from the supplement of paper PMC9170038.

What was measured:
MS2 coat protein [1] = assay: apparent KD of MS2 coat protein, switch ON state; designed switch direction (-1 OFF switch, 1 ON switch): -1; higher = weaker reporter binding; details: FMN input: 0 or 200 uM; Eterna round: R93 (includes R88 designs)
Outline: (§1)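 Binding of SNAP-549-labelled MS2 coat protein was measured on designed RNA switches transcribed on-chip from Illumina sequencing clusters. The protein rose in twofold steps from 0.7 or 1.5 nM to 3 µM, with 0.8–1.5 h per step early on and 10–20 min per step later, in 100 mM Tris-HCl pH 7.5, 80 mM KCl, 4 mM MgCl2, without or with constant ligand. Each design's apparent KD is the median of fits to its normalised cluster binding curves.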

MS2 coat protein [2] = assay: apparent KD of MS2 coat protein, switch OFF state (with FMN for OFF switches, without FMN for ON switches); designed switch direction (-1 OFF switch, 1 ON switch): -1; higher = weaker reporter binding; details: FMN input: 0 or 200 uM; Eterna round: R93 (includes R88 designs)
Outline: as §1

| Sequence | apparent KD of MS2 coat protein (MS2 coat protein [1]) [nM] | apparent KD of MS2 coat protein (MS2 coat protein [2]) [nM] |
| --- | --- | --- |
| GUGUACAGAGGAUAUACUGGAGCUAGGAAACUAGCAAGAUCACAUGAGGAUCACCCAUGUAGAAGGCUGUACAC [Ex2: 743] | 90.8 | 20.2 |
| AAAAAAAGAGGAUAUACGUACAUGUCGAAAGACGUGAAGGGACAUGAGGAUCACCCAUGUAGAAGGUUUAAAAA [Mat - Exclusion 2 - JL mod - D84] | 33.8 | 15.8 |
| GAUCAGCUAGGAUAUACAUUAAUCCGAAAUGAGAAGAAAGAACAUGAGGAUCACCCAUGUAGAAGGAGCCAGUA [Usinisat] | 33.7 | 32.1 |
| GAAUGACUAGGAUAUACAUGAGGAUCACCCAUGUGUAUAAAUAAAUACACAAAAGAAAGUAGAAGGAGUCAAAG [Mat - Exclusion 3 - Mayanna mod - D124] | 20.8 | 83.2 |
| GGAAAGCAAGGAUAUACAAACAAACAAACAAACAAAAGGGAACAUGAGGAUCACCCAUGUAGAAGGUGCAAACA [Exclusion 2 XX] | 41 | 31.8 |
| AAGAAGCGAGGAUAUACAUGAAAGAAAGAAAAGAAAAGAAAACAUGAGGAUCACCCAUGUAGAAGGCGCAAGAA [EteRNA is fun!] | 21.4 | 28.2 |
| UCGUGGUCAGGAUAUACAUGAGGAUCACCCAUGUAAAAGAACACAAAGGAGAGACGACGUAGAAGGGACAAAUA [Erqugere] | 43.7 | 42.1 |
| ACGUACUCAGGAUAUACGAACAUGUCAAAAGACGUGAAGGGACAUGAGGAUCACCCAUGUAGAAGGGAGUACGA [Mat - Exclusion 2 - JL mod - D6] | 33.6 | 148 |
| GAAAAGUCAGGAUAUAUGCGAAAAAUAAAAAAAAUAAAAACAUAGAAGGGACAUGAGGAUCACCCAUGUUAAAA [Mat - Exclusion 4 - Mayanna - D134] | 41.6 | 29.7 |
| CUCUAGUGAGGAUAUCCAAGAAAAGAAGAGAAAGAAAAGAAGGAGAAGGCACAUGAGGAUCACCCAUGUAAGAA [EteRNA is fun!] | 44.1 | 35.8 |
| AAAAAGCGAGGAUAUACAUGAGGAUCACCCAUGUGAAAGUCGAAAAAAAAGACAAAAAGUAGAAGGCGCAAAAA [Banishment 7 - Jieux - Exclusion 3] | 18.3 | 22.8 |
| AAAAAGUCAGGAUAUACAUGAGGAUCACCCAUGUAGCAUACGAAAAAGAGUGUGCAGUGUAGAAGGGACAAAAA [Exclusion3-cac3] | 19.5 | 21.2 |
| AAAGGACGAGGAUAUACAUGAGGAUCACCCAUGUAAAAAACAUAAUAAAAGAACUUGUGUAGAAGGCGUCCAAA [Meechl Ex3 2 R2 v6] | 93 | 335 |
| AAAAAACAUGAGGAUCACCCAUGUGAGGAUAUGACGUAAAUAAAGAAAGAAGAAAUCGUCAGAAGGCACACCUA [Disincluded 2 (MS2 Riboswitches)] | 25.7 | 45.7 |
| AAAAAUGGAGGAUAUACAUGAGGAUCACCCAUGUGUAACUAUACAAAACACAAAAAAAGUAGAAGGCCAAAAAA [Gilly Gone Silly 7 - Jieux - Exclusion 3] | 20.1 | 19.3 |
| AAAAGACAUGAGGAUCACCCAUGUCAGGAUAUGACUUGAAAAAAAAAAAAAAAACAUGUCAGAAGGGACAUGAA [Design 45: Sub-opt D] | 20.6 | 19.6 |
| AACAGGUGAGGAUAUCGAACAACAACAACAACAACAACAAACGAGAAGGCACAUGAGGAUCACCCAUGUAAGAA [Exclusion 4C] | 19.6 | 16.6 |
| GGAAAACAUGAGGAUCACCCAUGUGAGGAUAUCGAUGUCCAAACCAAAGUGCGGGACUCGAGAAGGCACUUGGA [salish99-ex1-37] | 45.9 | 28.6 |
| AAGAGUAGAGGAUAUACAUAAAAAGAGUCGAAAGACUCGGGACAUGAGGAUCACCCAUGUAGAAGGCUACUCAA [Hyphema Seclusion Mod 62% 4] | 98.6 | 406 |
| AAAAAGUGAGGAUAUGUCAAAGGUCACGAAAGUGACAAAGGACAGAAGGCACAUGAGGAUCACCCAUGUGGAAA [Fiskers Exclusion 4D1 65% - Early + late G segment 3] | 27.3 | 27.6 |
| CCAGAUGCAGGAUAUACAUGAGGAUCACCCAUGUGGCACACACCCACCCACAGCACCCGUAGAAGGGCAGCACG [Halfast on Cytosine - Jieux - Exclusion 3] | 27 | 25.9 |
| AACAGUACAGGAUAUACAUGAGGAUCACCCAUGUGAAAAUUAAGUGGCGUACCACAGUGUAGAAGGGUACUGGA [Moding Maslow Revisited (73) 25] | 87.9 | 62.7 |

| Sequence | apparent KD of MS2 coat protein (MS2 coat protein [1]) [nM] | apparent KD of MS2 coat protein (MS2 coat protein [2]) [nM] |
| --- | --- | --- |
| AAAGAUACAGGAUAUACAUGAGGAUCACCCAUGUGGAAUCAAAAAUGGGAAAAAGAAAGUAGAAGGGUAUAAAA [Ex 3 May 38] | 30.6 | 87.3 |
| AAAAAGCUAGGAUAUACGAAAAAAAAGGGUAGAAAAAAAACACAUGAGGAUCACCCAUGUAGAAGGAGCAAAAA [Mat - Exclusion 2 - Tesla mod - D33] | 45.7 | 84.6 |
| ACUAAACGAGGAUAUACUAACGAACCUCAAACAUAGAUAAGACAUGAGGAUCACCCAUGUAGAAGGCGUAGACU [JR_Exc002_Sub008] | 74.6 | 59.7 |
| AAGAAGCAAGGAUAUACAUGAGGAUCACCCAUGUAAAAGAAAGAAAAGGGAAAGAAAAGUAGAAGGUGCAAGAA [Menmaatre Seti I] | 21.6 | 27 |
| GAAAAGGCAGGAUAUGCAAGGAUAUAGAAGGAAAAAAAAAAACAUGAGGAUCACCCAUGUAGAAGGGCCAAAAG [salish99-ex2-10] | 57.2 | 33.5 |
| CAAAGGUGAGGAUAUACAAAACUAUGACGAAAGUCAUAAAAACAUGAGGAUCACCCAUGUAGAAGGCACCACAA [E2 64% 2] | 31.6 | 23.7 |
| AAGAAGCGAGGAUAUACAUGAGGAUCACCCAUGUAAAAGAAAGAAGGGAAAGAGAAAAGUAGAAGGCGCAAGAA [Hedjkheperre-setpenre Takelot II] | 70.7 | 109 |
| AAGAACGAAGGAUAUACAAAAUAAAAGAAAAGAAAGAAAGAACAUGAGGAUCACCCAUGUAGAAGGUCGAAGAA [Awybre Hor I] | 10.5 | 25.8 |
| CGUUGGCGAGGAUAUACAUGAGGAUCACCCAUGUGAGAGAAAAAAGUGAGAAAGAAAAGUAGAAGGCGCUGACC [salish99-ex3-13] | 45.1 | 162 |
| CUCAAGUUAGGAUAUGAAAGAAAAGAAGAGAAAGAAAAGAAUCAGAAGGAACAUGAGGAUCACCCAUGUAAGAA [EteRNA is fun!] | 29.7 | 19.5 |
| AGCUAGUCAGGAUAUACGAAAAUGACAGAAGACGUAAGGGAACAUGAGGAUCACCCAUGUAGAAGGGACUAGCA [Diamond 42] | 26.6 | 67.7 |
| AAGAAGUCAGGAUAUCGAAGACUGUCGAAAAGACAGUCGAACGAGAAGGGACAUGAGGAUCACCCAUGUGGAAA [Marsurpial 65% 7] | 56.3 | 112 |
| AAGAACGAAGGAUAUACAUGAGGAUCACCCAUGUAAAAGAAAGAGGGAAAAGAGAAAAGUAGAAGGUCGAAGAA [Ptolemy VIII Euergetes II] | 20.4 | 23.8 |
| AGAAAACAUGAGGAUCACCCAUGUGAGGAUAUCUAAAAGAAAAGAAAAGAAAGAAGAAGGAGAAGGCACAAGAA [Sanakhte] | 37.4 | 29.4 |
| AAAAAGGCAGGAUAUGCAUACCCACGGAAAAAAAGGCUGGGACAUGAGGAUCACCCAUGUAGAAGGGCCAAAAA [Dora Explored 12 - Jieux - Exclusion 2] | 21.5 | 14.5 |
| AGCACGGUAGGAUAUACGAACAAAACGGGAGAACUAAAGGGACAUGAGGAUCACCCAUGUAGAAGGACCAAGCA [Diamond 90] | 42 | 119 |
| AUAAAACAUGAGGAUCACCCAUGUGAGGAUAUGCUAAAAUAAAAUAAAAUAAAAUAAUGCAGAAGGCACAAAUA [Fancy Pants] | 37.6 | 53.8 |
| CUCAAGUCAGGAUAUUAAAGAAAAGAAGAGAAAGAAAAGAAUAAGAAGGGACAUGAGGAUCACCCAUGUAAGAA [EteRNA is fun!] | 57.3 | 30.9 |
| AGCUAGUCAGGAUAUACGAACAUGUCAAAAGACGUGAGGGAACAUGAGGAUCACCCAUGUAGAAGGGACUAGCA [Moving G segment in JL's topscorer (74%)] | 36.6 | 37.5 |
| UAUACGUGAGGAUAUGCGAAUACCACGUUAGACAUAUAGACGCAGAAGGCACAUGAGGAUCACCCAUGUGAACC [JR_Exc004_Sub315] | 21.4 | 16.4 |
| ACGUCGGGAGGAUAUACAUGAGGAUCACCCAUGUAAAGCGGGAAAGACGUUUAGUCGAGUAGAAGGCCUGAAGU [JR_Exc003_Sub1709] | 26.1 | 45.5 |
| AAAAAACAUGAGGAUCACCCAUGUAAGGAUAUGCUCGUGCGAAAAGCACAAAAAAAGAGCAGAAGGUACAAAAA [66%, Wbt, 39] | 15.2 | 33.3 |
